Data on one molecule can be found in US20260098090A1.

This assay has as its target T1, IL-2Rbg on mouse splenocytes (NK cells, CD8+ T cells, Treg cells) (mouse) (UniProt P16297).
T1 sequence (looked up) 1: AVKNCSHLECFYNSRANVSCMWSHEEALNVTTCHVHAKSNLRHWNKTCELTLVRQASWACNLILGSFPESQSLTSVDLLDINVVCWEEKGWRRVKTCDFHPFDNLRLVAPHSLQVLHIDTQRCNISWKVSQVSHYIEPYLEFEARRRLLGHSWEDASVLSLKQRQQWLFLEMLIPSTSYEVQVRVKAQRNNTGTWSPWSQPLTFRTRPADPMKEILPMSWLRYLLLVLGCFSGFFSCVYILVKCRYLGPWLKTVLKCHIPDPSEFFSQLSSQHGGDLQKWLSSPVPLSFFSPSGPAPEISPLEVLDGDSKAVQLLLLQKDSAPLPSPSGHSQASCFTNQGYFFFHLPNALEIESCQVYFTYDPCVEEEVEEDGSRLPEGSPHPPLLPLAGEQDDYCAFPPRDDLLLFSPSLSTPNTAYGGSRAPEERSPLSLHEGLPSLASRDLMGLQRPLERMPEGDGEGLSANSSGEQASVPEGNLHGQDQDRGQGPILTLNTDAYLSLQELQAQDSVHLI
T1 sequence (looked up) 2: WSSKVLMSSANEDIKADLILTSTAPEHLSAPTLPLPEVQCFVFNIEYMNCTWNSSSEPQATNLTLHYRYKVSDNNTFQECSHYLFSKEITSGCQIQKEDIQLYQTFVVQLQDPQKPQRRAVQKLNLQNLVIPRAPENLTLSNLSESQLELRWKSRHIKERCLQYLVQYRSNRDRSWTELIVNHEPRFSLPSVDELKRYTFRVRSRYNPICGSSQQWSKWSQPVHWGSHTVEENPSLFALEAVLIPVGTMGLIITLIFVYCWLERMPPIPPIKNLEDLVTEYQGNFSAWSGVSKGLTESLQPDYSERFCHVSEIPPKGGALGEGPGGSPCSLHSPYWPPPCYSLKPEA
The assay can be described thus: cell-based or functional assay.

B1: CTRL-mIL2v2 (protein, part only; not given: control antibody chains and linker, not shown: small tags and cut ends)
heavy, part: APTSSSTSSSTAEAQQQQQQQQQQQQHLEQLLMDLQELLSRMENYRNLKLPEMLTAKFALPKQATELKDLQCLEDELGPLRHVLDLTQSKSFQLEDAENFISNIRVTVVKLKGSDNTFECQFDDESATVVDFLRRWIAFAQSIISTSPQ
The molecule B1 yielded a pSTAT5 staining of murine splenocytes, EC50 on CD8+ T cells of 26 nM; a pSTAT5 staining of murine splenocytes, EC50 on NK cells of 8.6 nM; a pSTAT5 staining of murine splenocytes, EC50 on Treg cells of 42.5 nM.
